Measured values from patent US20230212549A1 (3B PHARMACEUTICALS, published 2023).
Numbered stars: 1 amine (or outer) side, 2 acyl side, 3 side chain; on linkers, the order of the positions; unused ones are H or OH. Bridge positions count the residues as written; N and C are the ends. Square brackets hold non-standard residues; d marks the D form. Primed or numbered codes have the meaning given here. * marks the point of attachment. tMeBn(DOTA-PP) = 1,3,5-trimethylbenzylidene, two thioethers to Cys, third CH2 bound to one N of piperazine whose other N bears DOTA, O=C(O)CN1CCN(CC(=O)O)CCN(CC(=O)N2CCN(Cc3cc(C[*:1])cc(C[*:2])c3)CC2)CCN(CC(=O)O)CC1; Ttds″ = 1,13-diamino-4,7,10-trioxatridecan-succinamic acid spacer, O=C(CCC(=O)[*:2])NCCCOCCOCCOCCCN[*:1]; TBMB(SCH2CH2NH-DOTA) = O=C(O)CN1CCN(CC(=O)O)CCN(CC(=O)NCCSCc2cc(C[*:1])cc(C[*:2])c2)CCN(CC(=O)O)CC1; Ttds = 1,13-diamino-4,7,10-trioxatridecan-succinamic acid, O=C(CCC(=O)[*:2])NCCCOCCOCCOCCCN[*:1]; DOTA = O=C(O)CN1CCN(CC(=O)O)CCN(CC(=O)*)CCN(CC(=O)O)CC1; mXylylene = c1cc(C[*:1])cc(C[*:2])c1; Pentanesulfonyl = CCCCCS(=O)(=O)*; Nle = CCCC[C@H](N)C(=O)O; 2Lut = 2,6-lutidylidene; Hexanoyl = CCCCCC(=O)*

B1: DOTA-Ttds-Met-[Cys(3MeBn)-Pro-Pro-Thr-Glu-Phe-Cys]-Asp-His-Phe-Arg-Asp-NH2 (peptide)
peptide: {DOTA}-[Ttds]MCPPTEFCDHFRD-NH2
modifications: linker 3-9 via mXylylene
SMILES: CSCC[C@H](NC(=O)CCC(=O)NCCCOCCOCCOCCCNC(=O)CN1CCN(CC(=O)O)CCN(CC(=O)O)CCN(CC(=O)O)CC1)C(=O)N[C@H]1CSCc2cccc(c2)CSC[C@@H](C(=O)N[C@@H](CC(=O)O)C(=O)N[C@@H](Cc2c[nH]cn2)C(=O)N[C@@H](Cc2ccccc2)C(=O)N[C@@H](CCCNC(=N)N)C(=O)N[C@@H](CC(=O)O)C(N)=O)NC(=O)[C@H](Cc2ccccc2)NC(=O)[C@H](CCC(=O)O)NC(=O)[C@H]([C@@H](C)O)NC(=O)[C@@H]2CCCN2C(=O)[C@@H]2CCCN2C1=O
B2: DOTA-Ttds-Leu-[Cys(3MeBn)-Pro-Pro-Thr-Glu-Phe-Cys]-Asp-His-Phe-Arg-Asp-NH2 (peptide)
peptide: {DOTA}-[Ttds″]LCPPTEFCDHFRD-NH2
modifications: linker 3-9 via mXylylene
SMILES: CC(C)C[C@H](NC(=O)CCC(=O)NCCCOCCOCCOCCCNC(=O)CN1CCN(CC(=O)O)CCN(CC(=O)O)CCN(CC(=O)O)CC1)C(=O)N[C@H]1CSCc2cccc(c2)CSC[C@@H](C(=O)N[C@@H](CC(=O)O)C(=O)N[C@@H](Cc2c[nH]cn2)C(=O)N[C@@H](Cc2ccccc2)C(=O)N[C@@H](CCCNC(=N)N)C(=O)N[C@@H](CC(=O)O)C(N)=O)NC(=O)[C@H](Cc2ccccc2)NC(=O)[C@H](CCC(=O)O)NC(=O)[C@H]([C@@H](C)O)NC(=O)[C@@H]2CCCN2C(=O)[C@@H]2CCCN2C1=O
notes: also called 3BP-3172
B3: Pentyl-SO2-[Cys(tMeBn(DOTA-PP))-Pro-Pro-Thr-Gln-Phe-Cys]-Asp-NH2 (peptide)
peptide: Pentanesulfonyl-CPPTQFCD-NH2
modifications: linker 1-7 via tMeBn(DOTA-PP)
SMILES: CCCCCS(=O)(=O)N[C@H]1CSCc2cc(cc(CN3CCN(C(=O)CN4CCN(CC(=O)O)CCN(CC(=O)O)CCN(CC(=O)O)CC4)CC3)c2)CSC[C@@H](C(=O)N[C@@H](CC(=O)O)C(N)=O)NC(=O)[C@H](Cc2ccccc2)NC(=O)[C@H](CCC(N)=O)NC(=O)[C@H]([C@@H](C)O)NC(=O)[C@@H]2CCCN2C(=O)[C@@H]2CCCN2C1=O
notes: also called 3BP-3692
B4: DOTA-Ttds-Nle-[Cys(3MeBn)-Pro-Pro-Thr-Glu-Phe-Cys]-Asp-His-Phe-Arg-Asp-NH2 (peptide)
peptide: {DOTA}-[Ttds][Nle]CPPTEFCDHFRD-NH2
modifications: linker 3-9 via mXylylene
SMILES: CCCC[C@H](NC(=O)CCC(=O)NCCCOCCOCCOCCCNC(=O)CN1CCN(CC(=O)O)CCN(CC(=O)O)CCN(CC(=O)O)CC1)C(=O)N[C@H]1CSCc2cccc(c2)CSC[C@@H](C(=O)N[C@@H](CC(=O)O)C(=O)N[C@@H](Cc2c[nH]cn2)C(=O)N[C@@H](Cc2ccccc2)C(=O)N[C@@H](CCCNC(=N)N)C(=O)N[C@@H](CC(=O)O)C(N)=O)NC(=O)[C@H](Cc2ccccc2)NC(=O)[C@H](CCC(=O)O)NC(=O)[C@H]([C@@H](C)O)NC(=O)[C@@H]2CCCN2C(=O)[C@@H]2CCCN2C1=O
B5: Hex-[Cys(3MeBn)-Pro-Pro-Thr-Glu-Phe-Cys]-Asp-His-Phe-Arg-Asp-Ttds-Lys(DOTA)-NH2 (peptide)
peptide: Hexanoyl-CPPTEFCDHFRD[Ttds″]K(DOTA)-NH2
modifications: linker 1-7 via mXylylene
SMILES: CCCCCC(=O)N[C@H]1CSCc2cccc(c2)CSC[C@@H](C(=O)N[C@@H](CC(=O)O)C(=O)N[C@@H](Cc2c[nH]cn2)C(=O)N[C@@H](Cc2ccccc2)C(=O)N[C@@H](CCCNC(=N)N)C(=O)N[C@@H](CC(=O)O)C(=O)NCCCOCCOCCOCCCNC(=O)CCC(=O)N[C@@H](CCCCNC(=O)CN2CCN(CC(=O)O)CCN(CC(=O)O)CCN(CC(=O)O)CC2)C(N)=O)NC(=O)[C@H](Cc2ccccc2)NC(=O)[C@H](CCC(=O)O)NC(=O)[C@H]([C@@H](C)O)NC(=O)[C@@H]2CCCN2C(=O)[C@@H]2CCCN2C1=O
B6: Hex-[Cys(tMeBn(DOTA-AET))-Pro-Pro-Thr-Gln-Phe-Cys]-Asp-OH (peptide)
peptide: Hexanoyl-CPPTQFCD-OH
modifications: linker 1-7 via TBMB(SCH2CH2NH-DOTA)
SMILES: CCCCCC(=O)N[C@H]1CSCc2cc(CSCCNC(=O)CN3CCN(CC(=O)O)CCN(CC(=O)O)CCN(CC(=O)O)CC3)cc(c2)CSC[C@@H](C(=O)N[C@@H](CC(=O)O)C(=O)O)NC(=O)[C@H](Cc2ccccc2)NC(=O)[C@H](CCC(N)=O)NC(=O)[C@H]([C@@H](C)O)NC(=O)[C@@H]2CCCN2C(=O)[C@@H]2CCCN2C1=O
notes: also called 3BP-3665

The binders below were run against Recombinant human FAP (R&D systems, #3715-SE) (human, UniProt Q12884 26-760) (assay: cell-based or functional assay).

Question: With B1 as the binder, how does the “pIC50 Category (Activity)” value read?
Answer: Its value is greater than 8 pIC50.

Question: Which “pIC50 Category (Activity)” value does the source give for B2 here?
Answer: Its value is greater than 8 pIC50.

Question: How did the “pIC50 Category (Activity)” value turn out when Hexanoyl-CPPTQFCD-NH2 (linker 1-7 via tMeBn(InDOTA-PP); also: indium complex of DOTA, also called 3BP-3590) [Hex-[Cys(tMeBn(InDOTA-PP))-Pro-Pro-Thr-Gln-Phe-Cys]-Asp-NH2] was run?
Answer: Its value is greater than 8 pIC50.

Question: How did the “pIC50 Category (Activity)” value turn out when B3 was run?
Answer: Its value is greater than 8 pIC50.

Question: Which “pIC50 Category (Activity)” value does the source give for B4 here?
Answer: Its value is greater than 8 pIC50.

Question: How did the “pIC50 Category (Activity)” value turn out when B5 was run?
Answer: The value was greater than 8 pIC50.

Question: Hexanoyl-CPPTQFCD-NH2 (linker 1-7 via tMeBn(EuDOTA-PP); also: europium complex of DOTA, also called 3BP-3661) [Hex-[Cys(tMeBn(EuDOTA-PP))-Pro-Pro-Thr-Gln-Phe-Cys]-Asp-NH2] was tested. Which “pIC50 Category (Activity)” value did it give?
Answer: The value was greater than 8 pIC50.

Question: How did the “pIC50 Category (Activity)” value turn out when B6 was run?
Answer: The value was greater than 8 pIC50.

Question: Which “pIC50 Category (Activity)” value does the source give for Hexanoyl-CPPTQFCD-NH2 (linker 1-7 via 2Lut, also called 3BP-3518) [Hex-[Cys(2Lut)-Pro-Pro-Thr-Gln-Phe-Cys]-Asp-NH2] here?
Answer: The value was greater than 8 pIC50.

Question: With Hexanoyl-CPPTQFCD-NH2 (linker 1-7 via tMeBn(GaDOTA-PP); also: gallium complex of DOTA, also called 3BP-3592) [Hex-[Cys(tMeBn(GaDOTA-PP))-Pro-Pro-Thr-Gln-Phe-Cys]-Asp-NH2] as the binder, how does the “pIC50 Category (Activity)” value read?
Answer: Its value is greater than 8 pIC50.

What follows are binders tested against T1, fibroblast activation protein (FAP) on FAP-expressing human WI-38 fibroblasts (human, UniProt Q12884 1-760) (assay: competitive FACS, WI-38 cells, vs Cy5 tracer m3; A = pIC50 >8.0).
T1 construct: also called human FAP

Question: For B1, which “pIC50 Category (FACS)” value is on record?
Answer: The value was greater than 8 pIC50.

Question: How did the “pIC50 Category (FACS)” value turn out when B2 was run?
Answer: The value was greater than 8 pIC50.

Question: Which “pIC50 Category (FACS)” value does the source give for Hexanoyl-CPPTQFCD-NH2 (linker 1-7 via tMeBn(InDOTA-PP); also: indium complex of DOTA, also called 3BP-3590) [Hex-[Cys(tMeBn(InDOTA-PP))-Pro-Pro-Thr-Gln-Phe-Cys]-Asp-NH2] here?
Answer: Its value is greater than 8 pIC50.

Question: With B3 as the binder, how does the “pIC50 Category (FACS)” value read?
Answer: Its value is greater than 8 pIC50.

Question: B4 was tested. Which “pIC50 Category (FACS)” value did it give?
Answer: Its value is greater than 8 pIC50.

Question: B5 was tested. Which “pIC50 Category (FACS)” value did it give?
Answer: The value was greater than 8 pIC50.

Question: How did the “pIC50 Category (FACS)” value turn out when Hexanoyl-CPPTQFCD-NH2 (linker 1-7 via tMeBn(EuDOTA-PP); also: europium complex of DOTA, also called 3BP-3661) [Hex-[Cys(tMeBn(EuDOTA-PP))-Pro-Pro-Thr-Gln-Phe-Cys]-Asp-NH2] was run?
Answer: The value was greater than 8 pIC50.

Question: Which “pIC50 Category (FACS)” value does the source give for B6 here?
Answer: Its value is greater than 8 pIC50.

Question: Hexanoyl-CPPTQFCD-NH2 (linker 1-7 via 2Lut, also called 3BP-3518) [Hex-[Cys(2Lut)-Pro-Pro-Thr-Gln-Phe-Cys]-Asp-NH2] was tested. Which “pIC50 Category (FACS)” value did it give?
Answer: The value was greater than 8 pIC50.

Question: For Hexanoyl-CPPTQFCD-NH2 (linker 1-7 via tMeBn(GaDOTA-PP); also: gallium complex of DOTA, also called 3BP-3592) [Hex-[Cys(tMeBn(GaDOTA-PP))-Pro-Pro-Thr-Gln-Phe-Cys]-Asp-NH2], which “pIC50 Category (FACS)” value is on record?
Answer: The value was greater than 8 pIC50.
